Measurements published in patent US20250041455A1 (Regeneron, published 2025).

Biological target: T1, hmm.hTfRC (REGN2431) (human, UniProt P02786 89-760)
T1 construct: also called hmm.hTfR(C89-F763); His-myc-myc-hTFRC ecto
Assay: blocking ELISA; Hmm-hTFRC + supernatant on plate-bound holo-Tf

T1 sequence (P02786 other isoform, or with tags, fused parts or gaps): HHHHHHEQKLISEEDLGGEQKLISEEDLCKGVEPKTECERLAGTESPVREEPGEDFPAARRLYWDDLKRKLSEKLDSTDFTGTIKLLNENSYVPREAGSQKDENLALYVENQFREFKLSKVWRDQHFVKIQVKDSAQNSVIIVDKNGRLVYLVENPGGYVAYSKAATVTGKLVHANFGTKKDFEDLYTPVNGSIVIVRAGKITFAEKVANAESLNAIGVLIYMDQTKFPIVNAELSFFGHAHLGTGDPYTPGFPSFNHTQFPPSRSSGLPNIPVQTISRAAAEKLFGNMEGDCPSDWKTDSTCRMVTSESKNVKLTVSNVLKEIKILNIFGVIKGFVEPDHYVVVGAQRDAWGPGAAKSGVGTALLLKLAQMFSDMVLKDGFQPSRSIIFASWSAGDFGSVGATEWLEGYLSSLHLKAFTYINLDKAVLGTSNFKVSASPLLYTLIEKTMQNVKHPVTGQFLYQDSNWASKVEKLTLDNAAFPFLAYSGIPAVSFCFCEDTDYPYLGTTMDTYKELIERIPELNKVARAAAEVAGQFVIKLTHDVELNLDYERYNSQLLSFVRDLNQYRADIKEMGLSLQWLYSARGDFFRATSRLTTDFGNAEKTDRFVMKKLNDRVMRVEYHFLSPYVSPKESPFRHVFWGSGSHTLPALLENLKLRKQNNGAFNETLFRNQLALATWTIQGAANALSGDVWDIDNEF

Row | Binder | % Blocking [%]
1 | 12798B scFv (VH-VK) (scFv) EVQLVESGGDLVQPGRSLRLSCAASGFTFDDYAMHWVRQAPGKGLEWVSGISWNSATRVYADSVKGRFTISRDNAKNFLYLQMNSLRSEDTALYHCAKDMDISLGYYGLDVWGQGTTVTVSSEIVMTQSPATLSVSPGERATLSCRASQTVSSNLAWYQQKPGQAPRLLIYGSSSRATGIPARFSGSGSGTEFTLTISSLQSEDFAVYYCQQYNNWPPYTFGQGTKLEIK | 0
2 | 12799B scFv (VH-VK) (scFv) QITLKESGPTLVKPTQTLTLTCTFSGFSLSTSGVGVVWIRQPPGKALEWLALIYWNDHKRYSPSLGSRLTITKDTSKNQVVLTMTNMDPVDTATYYCAHYSGSYSYYYYGLDVWGQGTTVTVSSDIQMTQSPSSVSASVGDRVTITCRASQGIASWLAWYQQKPGKAPELLIYAASSLQGGVPSRFSGSGSGTDFTLTISSLQPEDFAIYYCQQANYFPWTFGQGTKVEIK | 26
3 | 12802B scFv (VH-VK) (scFv) QVQLVESGGGLVKPGGSLRLSCAASGFTFSDYFMSWIRQAPGKGLEWVSYISSTGSTINYADSVKGRFTISRDNVKNSLYLQMTSLRVEDTAVYYCTRDNWNYEYWGQGTLVTVSSEIVMTQSPATLSVSPGERATLSCRASQSVSINLAWYQQKPGQAPRLLIFVASTRATGIPARFSGSGSGTEFTLTISSLQSEDFATYYCQQYDIWPYTFGQGTKLEIK | 11

Other lines, results leading:

Row | % Blocking [%] | Binder
4 | 19 | 12812B scFv (VH-VK) (scFv) QVQLVQSGAEVKKPGSSVRVSCKASRGTFSSYAISWVRQAPGQGLEWMGGIIPIFGTANYAQKFLARVTITADESTSTAYMELSSLRSEDTAVYYCAREKGWNYFDYWGQGTLVTVSSDIQMTQSPPSVSASVGDRVTITCRASQGISSWLAWYQQKPGKAPKLLIYAASSLQSGVPSRFSGSGSGTDFTLTISSLQPEDFATYYCQQANSFPRTFGQGTKVEIK
5 | 9 | 69307 scFv (VH-VK) (scFv) EVQLVESGGGLVQPGGSLRLSCTASGFTFSNYWMTWVRQAPGKGLEWVANIKEDGSEKEYVDSVKGRFTISRDNAKNSLYLQMNSLRGEDTAVYYCARDGEQLVDYYYYYVMDVWGQGTTVTVSSDIQMTQSPSSVSASVGDRVTITCRASQGISSWLAWYQQKPGKAPKLLIYAASSLQSGVPSRFSGSGSGTDFTLTISSLQPEDFATYYCQKADSLPYAFGQGTKLEIK
